Where no end group is shown, it is not given here.
Experiments:
[1] = target: T1, λD-Acid display phage (gpD fused to acidic aptamer [Gly-Glu]4) (bacteriophage lambda), P03712; experiment: competition: free peptide titrates λD-Acid:λD-Base co-infection (MOI 0.0025), loss of double resistant multilysogens
T1 chain: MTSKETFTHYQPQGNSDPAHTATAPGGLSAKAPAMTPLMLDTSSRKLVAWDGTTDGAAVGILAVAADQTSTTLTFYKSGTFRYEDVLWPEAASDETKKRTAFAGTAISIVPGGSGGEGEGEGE

[2] = target: T1, λD-Acid display phage (gpD fused to …); experiment: apparent KD, calculated as the concentration of free peptide that results in an IC50 in the λD-Acid:λD-Base co-infection assay
[3] = target: T2, λD-Base display phage (gpD fused to basic aptamer [Gly-Arg]4) (bacteriophage lambda), P03712; experiment: competition: free peptide titrates λD-Acid:λD-Base co-infection (MOI 0.0025), loss of double resistant multilysogens
T2 chain: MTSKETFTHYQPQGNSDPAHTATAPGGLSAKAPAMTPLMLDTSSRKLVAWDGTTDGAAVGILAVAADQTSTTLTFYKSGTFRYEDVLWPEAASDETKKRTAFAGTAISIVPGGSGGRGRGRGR

[4] = target: T2, λD-Base display phage (gpD fused to …); experiment: apparent KD, calculated as the concentration of free peptide that results in an IC50 in the λD-Acid:λD-Base co-infection assay

## GRGRGRGR (not fully specified) [Basic Aptamer (free synthetic peptide [Gly-Arg]4)]
[1]
  IC50: 10 nM
[2]
  Kd: 10 nM

## GEGEGEGE (not fully specified) [Acidic Aptamer (free synthetic peptide [Gly-Glu]4)]
[3]
  IC50: 10 nM
[4]
  Kd: 10 nM
